Molecular target: T1, DEC-205 receptor of dog spleen cells (dog, UniProt A0A8I3Q134 28-1723)
T1 construct: whole, on cells; It only reports that no 205 kDa band was isolated
Assay: immunoprecipitation from spleen white cell lysate, SDS-PAGE
Experimental: For this purpose Jurkat cells (the cell line of human T lymphocytes) as well as white cells obtained from the spleens of different animals (pigs and dogs) were lysed in an immunoprecipitation buffer (PBS pH 7.4, 1% Triton X-100 with protease inhibitor). […] Then, 50 μL of A-Sepharose protein (Pierce, Rockford, Ill., USA) was used for immunoprecipitation, with incubation being done for one hour at ambient temperature. The immune complexes that were formed were washed extensively. The immunoprecipitates were eluted by boiling for five minutes in a sample buffer with SDS. These precipitates were analyzed on a 10% SDS-PAGE gel under reducing conditions using molecular weight markers. […] The molecular weights are indicated.

T1 sequence (A0A8I3Q134 entry or part of it): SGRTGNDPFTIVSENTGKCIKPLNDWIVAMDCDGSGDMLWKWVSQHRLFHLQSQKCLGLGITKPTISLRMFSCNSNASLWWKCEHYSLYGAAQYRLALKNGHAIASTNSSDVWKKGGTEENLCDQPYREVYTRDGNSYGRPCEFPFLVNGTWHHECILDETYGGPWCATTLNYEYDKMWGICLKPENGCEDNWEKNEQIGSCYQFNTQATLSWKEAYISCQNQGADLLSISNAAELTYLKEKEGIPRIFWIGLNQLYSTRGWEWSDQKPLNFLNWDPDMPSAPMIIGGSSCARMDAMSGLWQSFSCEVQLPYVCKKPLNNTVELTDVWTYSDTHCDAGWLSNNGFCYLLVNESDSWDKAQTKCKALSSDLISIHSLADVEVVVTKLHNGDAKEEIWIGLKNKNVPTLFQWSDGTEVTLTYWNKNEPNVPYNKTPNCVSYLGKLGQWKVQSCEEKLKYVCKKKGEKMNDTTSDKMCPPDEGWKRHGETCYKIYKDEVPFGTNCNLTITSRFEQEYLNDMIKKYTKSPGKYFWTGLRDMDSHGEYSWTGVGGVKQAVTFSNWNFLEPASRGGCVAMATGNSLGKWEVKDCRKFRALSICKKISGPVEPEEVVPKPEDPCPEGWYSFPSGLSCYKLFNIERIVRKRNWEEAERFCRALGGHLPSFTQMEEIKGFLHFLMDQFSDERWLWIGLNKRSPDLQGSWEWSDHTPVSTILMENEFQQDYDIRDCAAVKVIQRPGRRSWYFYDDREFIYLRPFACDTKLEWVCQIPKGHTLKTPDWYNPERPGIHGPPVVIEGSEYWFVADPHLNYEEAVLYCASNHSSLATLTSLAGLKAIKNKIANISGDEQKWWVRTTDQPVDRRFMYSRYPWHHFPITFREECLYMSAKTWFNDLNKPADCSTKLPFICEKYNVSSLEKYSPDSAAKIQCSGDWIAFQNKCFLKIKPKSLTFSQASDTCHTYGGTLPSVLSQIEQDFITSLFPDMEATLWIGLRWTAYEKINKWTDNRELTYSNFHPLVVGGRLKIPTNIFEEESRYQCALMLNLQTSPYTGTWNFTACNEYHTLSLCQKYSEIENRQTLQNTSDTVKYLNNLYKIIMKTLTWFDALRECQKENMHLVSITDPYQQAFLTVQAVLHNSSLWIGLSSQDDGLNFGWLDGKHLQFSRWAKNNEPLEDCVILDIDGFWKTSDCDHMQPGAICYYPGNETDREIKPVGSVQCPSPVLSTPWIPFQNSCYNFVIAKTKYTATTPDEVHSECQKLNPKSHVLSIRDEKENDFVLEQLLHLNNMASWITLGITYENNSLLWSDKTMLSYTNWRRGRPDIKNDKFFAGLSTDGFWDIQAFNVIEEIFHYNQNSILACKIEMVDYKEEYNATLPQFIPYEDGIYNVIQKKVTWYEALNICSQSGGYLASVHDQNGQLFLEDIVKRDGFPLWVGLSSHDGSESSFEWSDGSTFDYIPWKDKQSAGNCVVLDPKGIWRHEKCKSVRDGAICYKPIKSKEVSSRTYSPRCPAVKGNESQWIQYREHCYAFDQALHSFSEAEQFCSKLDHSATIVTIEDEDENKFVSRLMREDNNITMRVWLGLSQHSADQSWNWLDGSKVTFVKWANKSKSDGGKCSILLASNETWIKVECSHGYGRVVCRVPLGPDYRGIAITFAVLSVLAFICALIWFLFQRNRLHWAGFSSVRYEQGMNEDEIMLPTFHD

binding result: no binding
B1: murine monoclonal antibody 2F2E8E3B6 anti-CTLD-2 (antibody, IgG2a, V domains shown)
VH: EVQLQQSTAEFVKPGASVKLSCTASGFNIKDTYIHWVKQRPEQGLEWIGRIDPANGNTRYDPKFQGKATMTADTSSNTAYLQLSSLTSEDTAVYYCARYDVTYWGQGTLVTVS
VL: DIVMSQSPSSLAVSAGERVTMSCKSSQSLLNSRTRKNYLAWYQQKPGQSPKLLIYWASTRESGVPDRFTGSGSGTDFTLTISSVRAEDLAVYYCKQSYNLYTFGRGTKLEIK
notes: also called 2F2E8D3B6; AbM 2F2E8E3B6
